Experimental data from the supplement of paper PMC10065799, “High-throughput profiling of sequence recognition by tyrosine kinases and SH2 domains using bacterial peptide display” (eLife, 2023).
Values belong to the sequence of their own block, whether it stands above or below them.

How the values were obtained:
Grb2 SH2 = Grb2 SH2 (UniProt P62993); assay: SH2 binding enrichment of the phosphorylated peptide, bacterial display (enrichment ratio); higher = better substrate or ligand; peptides without Tyr show the background
c-Src SH2 = assay: as above
SHP2-C SH2 = assay: as above
FGFR3 = FGFR3 (UniProt P22607); assay: phosphorylation enrichment, bacterial display (enrichment ratio); higher = better substrate or ligand; peptides without Tyr show the background
FGFR3, sequence (P22607 whole entry, looked up): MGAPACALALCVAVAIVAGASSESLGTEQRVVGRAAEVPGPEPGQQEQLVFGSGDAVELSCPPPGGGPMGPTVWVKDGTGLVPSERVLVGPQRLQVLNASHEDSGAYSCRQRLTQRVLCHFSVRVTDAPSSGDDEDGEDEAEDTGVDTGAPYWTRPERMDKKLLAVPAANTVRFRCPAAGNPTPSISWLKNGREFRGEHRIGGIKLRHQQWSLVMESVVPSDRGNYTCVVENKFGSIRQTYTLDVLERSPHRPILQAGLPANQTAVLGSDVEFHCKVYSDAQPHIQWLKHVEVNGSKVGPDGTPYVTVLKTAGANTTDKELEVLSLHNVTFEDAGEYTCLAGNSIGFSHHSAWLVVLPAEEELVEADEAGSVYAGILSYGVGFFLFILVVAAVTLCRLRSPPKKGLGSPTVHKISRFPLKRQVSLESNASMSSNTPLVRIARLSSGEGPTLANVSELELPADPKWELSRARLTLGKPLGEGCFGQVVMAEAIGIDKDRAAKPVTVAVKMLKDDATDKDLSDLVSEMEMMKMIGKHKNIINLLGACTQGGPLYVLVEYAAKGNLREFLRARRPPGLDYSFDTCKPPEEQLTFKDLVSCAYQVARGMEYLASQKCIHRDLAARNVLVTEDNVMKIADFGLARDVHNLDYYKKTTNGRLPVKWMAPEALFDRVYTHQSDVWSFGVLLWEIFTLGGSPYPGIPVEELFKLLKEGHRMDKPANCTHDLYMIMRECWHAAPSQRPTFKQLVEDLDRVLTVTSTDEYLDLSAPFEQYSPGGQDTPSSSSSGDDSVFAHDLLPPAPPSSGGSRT

Fer (mouse) = assay: as above
c-Src = assay: as above
Jak2 = Jak2 (UniProt O60674); assay: as above
Fyn = Fyn (UniProt P06241); assay: as above
Fyn, sequence (P06241 whole entry, looked up): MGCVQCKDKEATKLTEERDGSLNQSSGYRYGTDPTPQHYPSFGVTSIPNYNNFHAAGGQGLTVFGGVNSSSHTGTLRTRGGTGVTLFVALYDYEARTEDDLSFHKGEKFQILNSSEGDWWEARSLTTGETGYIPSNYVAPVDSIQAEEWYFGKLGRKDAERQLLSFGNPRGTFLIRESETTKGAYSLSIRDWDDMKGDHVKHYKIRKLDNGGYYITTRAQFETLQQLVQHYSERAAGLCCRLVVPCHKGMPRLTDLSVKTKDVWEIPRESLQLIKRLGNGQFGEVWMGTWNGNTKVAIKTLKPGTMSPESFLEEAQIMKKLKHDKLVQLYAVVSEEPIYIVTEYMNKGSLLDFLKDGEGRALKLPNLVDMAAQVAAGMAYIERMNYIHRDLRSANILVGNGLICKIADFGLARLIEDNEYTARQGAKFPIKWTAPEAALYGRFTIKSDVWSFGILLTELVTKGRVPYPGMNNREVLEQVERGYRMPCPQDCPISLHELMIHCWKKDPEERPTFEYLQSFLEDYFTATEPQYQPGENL

AncSZ = assay: as above
Fes = Fes (UniProt P07332); assay: as above
Fes, sequence (P07332 whole entry, looked up): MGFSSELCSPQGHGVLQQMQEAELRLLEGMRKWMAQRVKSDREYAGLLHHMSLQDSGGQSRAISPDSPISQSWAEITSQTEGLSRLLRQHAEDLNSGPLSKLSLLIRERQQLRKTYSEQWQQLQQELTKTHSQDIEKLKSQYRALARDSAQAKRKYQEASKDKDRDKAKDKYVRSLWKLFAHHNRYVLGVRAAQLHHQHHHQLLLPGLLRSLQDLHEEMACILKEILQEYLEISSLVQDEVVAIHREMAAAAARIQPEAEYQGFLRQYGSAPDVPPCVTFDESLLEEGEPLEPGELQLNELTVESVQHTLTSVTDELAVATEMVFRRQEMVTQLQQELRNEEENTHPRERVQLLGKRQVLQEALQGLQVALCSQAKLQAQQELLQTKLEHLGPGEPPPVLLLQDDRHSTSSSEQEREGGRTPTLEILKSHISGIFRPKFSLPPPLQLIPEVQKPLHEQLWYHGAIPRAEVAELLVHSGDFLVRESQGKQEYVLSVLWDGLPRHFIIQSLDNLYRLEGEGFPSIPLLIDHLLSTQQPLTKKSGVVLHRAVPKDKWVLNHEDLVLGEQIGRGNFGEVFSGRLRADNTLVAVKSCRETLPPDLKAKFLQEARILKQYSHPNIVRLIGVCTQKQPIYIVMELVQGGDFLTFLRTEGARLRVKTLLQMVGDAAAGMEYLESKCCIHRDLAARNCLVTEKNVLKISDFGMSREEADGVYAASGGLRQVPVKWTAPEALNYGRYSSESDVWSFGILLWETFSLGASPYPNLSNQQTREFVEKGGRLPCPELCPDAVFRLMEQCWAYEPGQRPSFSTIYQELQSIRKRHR

EPHB2 = EPHB2 (UniProt P29323); assay: as above
Hck = Hck (UniProt P08631); assay: as above
Hck, sequence (P08631 whole entry, looked up): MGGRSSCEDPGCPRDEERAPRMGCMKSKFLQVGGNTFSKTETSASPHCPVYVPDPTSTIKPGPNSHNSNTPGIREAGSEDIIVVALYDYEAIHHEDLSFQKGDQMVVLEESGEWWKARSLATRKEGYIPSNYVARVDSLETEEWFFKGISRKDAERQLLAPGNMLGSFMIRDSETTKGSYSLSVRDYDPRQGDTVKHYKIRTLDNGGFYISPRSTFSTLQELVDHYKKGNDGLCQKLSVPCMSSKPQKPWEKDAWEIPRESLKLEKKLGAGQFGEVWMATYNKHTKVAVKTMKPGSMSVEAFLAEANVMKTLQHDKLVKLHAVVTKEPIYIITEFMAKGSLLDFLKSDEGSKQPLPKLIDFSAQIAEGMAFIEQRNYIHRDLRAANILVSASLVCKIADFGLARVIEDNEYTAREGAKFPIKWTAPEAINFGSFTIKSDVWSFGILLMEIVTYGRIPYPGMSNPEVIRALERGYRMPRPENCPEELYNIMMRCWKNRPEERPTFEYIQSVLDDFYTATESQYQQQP

EPHB1 = EPHB1 (UniProt P54762); assay: as above
EPHB1, sequence (P54762 whole entry, looked up): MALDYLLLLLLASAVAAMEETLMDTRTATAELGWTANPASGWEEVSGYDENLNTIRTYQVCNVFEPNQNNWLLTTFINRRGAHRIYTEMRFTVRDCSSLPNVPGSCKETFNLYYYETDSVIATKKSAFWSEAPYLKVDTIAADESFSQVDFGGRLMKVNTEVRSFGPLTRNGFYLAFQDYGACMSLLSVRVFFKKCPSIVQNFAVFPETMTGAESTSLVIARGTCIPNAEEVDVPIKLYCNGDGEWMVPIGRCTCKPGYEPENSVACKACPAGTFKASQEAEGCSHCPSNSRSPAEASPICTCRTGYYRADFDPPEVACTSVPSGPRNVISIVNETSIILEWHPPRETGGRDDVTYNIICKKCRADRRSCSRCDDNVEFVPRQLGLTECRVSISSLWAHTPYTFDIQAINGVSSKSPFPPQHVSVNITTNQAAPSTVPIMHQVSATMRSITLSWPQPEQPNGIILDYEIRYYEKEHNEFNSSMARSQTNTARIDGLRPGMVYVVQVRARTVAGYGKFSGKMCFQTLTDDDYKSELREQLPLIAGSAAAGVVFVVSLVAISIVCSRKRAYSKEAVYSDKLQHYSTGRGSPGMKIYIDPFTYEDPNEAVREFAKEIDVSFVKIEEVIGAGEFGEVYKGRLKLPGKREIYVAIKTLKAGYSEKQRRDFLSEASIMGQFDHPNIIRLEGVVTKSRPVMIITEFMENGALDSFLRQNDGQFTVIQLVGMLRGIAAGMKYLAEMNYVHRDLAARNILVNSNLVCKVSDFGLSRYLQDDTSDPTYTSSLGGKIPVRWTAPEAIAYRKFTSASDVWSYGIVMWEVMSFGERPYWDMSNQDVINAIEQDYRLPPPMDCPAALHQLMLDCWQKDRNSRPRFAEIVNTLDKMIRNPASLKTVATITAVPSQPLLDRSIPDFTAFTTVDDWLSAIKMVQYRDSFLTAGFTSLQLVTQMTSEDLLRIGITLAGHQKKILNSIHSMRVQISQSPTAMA

c-Abl (mouse) = assay: as above
FGFR1 = FGFR1 (UniProt P11362); assay: as above
MERTK = MERTK (UniProt Q12866); assay: as above
MERTK, sequence (Q12866 whole entry, looked up, the tested form may be a part): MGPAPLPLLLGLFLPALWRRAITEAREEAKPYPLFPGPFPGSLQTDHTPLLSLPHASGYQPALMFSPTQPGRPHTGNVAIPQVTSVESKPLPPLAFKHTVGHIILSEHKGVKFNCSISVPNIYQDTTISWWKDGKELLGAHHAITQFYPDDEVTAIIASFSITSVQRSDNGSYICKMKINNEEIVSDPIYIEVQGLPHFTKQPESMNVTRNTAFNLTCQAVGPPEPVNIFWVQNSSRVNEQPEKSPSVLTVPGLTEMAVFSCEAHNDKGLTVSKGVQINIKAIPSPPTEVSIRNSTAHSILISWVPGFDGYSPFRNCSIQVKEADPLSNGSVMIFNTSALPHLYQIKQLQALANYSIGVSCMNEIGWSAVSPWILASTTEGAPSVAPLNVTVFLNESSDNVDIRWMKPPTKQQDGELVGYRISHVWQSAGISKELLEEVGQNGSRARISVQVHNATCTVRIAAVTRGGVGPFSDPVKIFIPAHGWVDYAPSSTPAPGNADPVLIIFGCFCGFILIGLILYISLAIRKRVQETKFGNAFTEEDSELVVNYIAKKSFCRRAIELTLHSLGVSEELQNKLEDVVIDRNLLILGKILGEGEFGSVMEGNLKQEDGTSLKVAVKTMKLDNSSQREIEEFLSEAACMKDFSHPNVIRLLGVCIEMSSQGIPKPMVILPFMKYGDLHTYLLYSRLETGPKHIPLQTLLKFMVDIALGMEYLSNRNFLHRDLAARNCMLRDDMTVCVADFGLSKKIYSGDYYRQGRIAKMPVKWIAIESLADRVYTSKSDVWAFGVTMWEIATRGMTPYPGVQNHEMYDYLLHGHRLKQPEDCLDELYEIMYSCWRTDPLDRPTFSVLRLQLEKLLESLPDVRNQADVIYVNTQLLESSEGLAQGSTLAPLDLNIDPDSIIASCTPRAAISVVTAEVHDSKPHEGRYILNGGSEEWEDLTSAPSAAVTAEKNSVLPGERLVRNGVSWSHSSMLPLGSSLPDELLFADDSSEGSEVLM
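Wherever SH2 binding enrichment of the phosphorylated peptide, bacterial display is given: peptide library displayed on the E. coli surface as eCPX fusions, selected cells deep-sequenced, score is each peptide's frequency after selection divided by its frequency in the input.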
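Wherever phosphorylation enrichment, bacterial display is given: 11-residue human phosphosite peptides and single-mutation variants displayed on the E. coli surface, counted by deep sequencing, each peptide's frequency after selection divided by its frequency in the unselected input library; frequency after pTyr selection over input frequency; kinase dosed for 20-30% of maximal phosphorylation in three min.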

Sequence: PGLKGYPGLSG [COL4A2_Y306_R304K]
SH2 binding enrichment (Grb2 SH2): 0.652
SH2 binding enrichment (c-Src SH2): 0.431
SH2 binding enrichment (SHP2-C SH2): 0.504
phosphorylation enrichment (FGFR3): 0.318
phosphorylation enrichment (Fer (mouse)): 0.218
phosphorylation enrichment (c-Src): 0.347
phosphorylation enrichment (Jak2): 0.422
phosphorylation enrichment (Fyn): 0.213
phosphorylation enrichment (AncSZ): 0.476
phosphorylation enrichment (Fes): 0.468
phosphorylation enrichment (EPHB2): 0.307
phosphorylation enrichment (Hck): 0.434
phosphorylation enrichment (EPHB1): 0.474
phosphorylation enrichment (c-Abl (mouse)): 0.639
phosphorylation enrichment (FGFR1): 0.369
phosphorylation enrichment (MERTK): 0.367

Sequence: PGPPGYCDSSQ [COL12A1_Y3043]
SH2 binding enrichment (Grb2 SH2): 0.979
SH2 binding enrichment (c-Src SH2): 0.603
SH2 binding enrichment (SHP2-C SH2): 0.692
phosphorylation enrichment (FGFR3): 0.941
phosphorylation enrichment (Fer (mouse)): 0.77
phosphorylation enrichment (c-Src): 0.594
phosphorylation enrichment (Jak2): 1.08
phosphorylation enrichment (Fyn): 0.643
phosphorylation enrichment (AncSZ): 1.03
phosphorylation enrichment (Fes): 1.41
phosphorylation enrichment (EPHB2): 0.492
phosphorylation enrichment (Hck): 0.639
phosphorylation enrichment (EPHB1): 0.914
phosphorylation enrichment (c-Abl (mouse)): 0.707
phosphorylation enrichment (FGFR1): 0.461
phosphorylation enrichment (MERTK): 0.505

Sequence: PIAPVYAPSMV [ACAT1_Y331_A333P]
SH2 binding enrichment (Grb2 SH2): 0.785
SH2 binding enrichment (c-Src SH2): 0.621
SH2 binding enrichment (SHP2-C SH2): 0.718
phosphorylation enrichment (FGFR3): 1.22
phosphorylation enrichment (Fer (mouse)): 16.1
phosphorylation enrichment (c-Src): 8.41
phosphorylation enrichment (Jak2): 0.738
phosphorylation enrichment (Fyn): 9.96
phosphorylation enrichment (AncSZ): 1.35
phosphorylation enrichment (Fes): 1.67
phosphorylation enrichment (EPHB2): 2.72
phosphorylation enrichment (Hck): 21
phosphorylation enrichment (EPHB1): 2.4
phosphorylation enrichment (c-Abl (mouse)): 49.8
phosphorylation enrichment (FGFR1): 0.779
phosphorylation enrichment (MERTK): 4.7

Sequence: PIFEGYGLPHA [ACTA1_Y171_A172G_YF]
SH2 binding enrichment (Grb2 SH2): 0.612
SH2 binding enrichment (c-Src SH2): 0.516
SH2 binding enrichment (SHP2-C SH2): 0.581
phosphorylation enrichment (FGFR3): 0.451
phosphorylation enrichment (Fer (mouse)): 0.744
phosphorylation enrichment (c-Src): 0.547
phosphorylation enrichment (Jak2): 0.836
phosphorylation enrichment (Fyn): 0.701
phosphorylation enrichment (AncSZ): 0.806
phosphorylation enrichment (Fes): 0.866
phosphorylation enrichment (EPHB2): 0.5
phosphorylation enrichment (Hck): 0.642
phosphorylation enrichment (EPHB1): 0.469
phosphorylation enrichment (c-Abl (mouse)): 0.872
phosphorylation enrichment (FGFR1): 0.628
phosphorylation enrichment (MERTK): 0.641

The next lines start with results.

SH2 binding enrichment (Grb2 SH2): 0.724
SH2 binding enrichment (c-Src SH2): 0.412
SH2 binding enrichment (SHP2-C SH2): 0.81
Sequence: PESILYRKFTT [NTRK1_Y701]
phosphorylation enrichment (FGFR3): 0.73
phosphorylation enrichment (Fer (mouse)): 0.818
phosphorylation enrichment (c-Src): 0.632
phosphorylation enrichment (Jak2): 1.14
phosphorylation enrichment (Fyn): 0.377
phosphorylation enrichment (AncSZ): 1.14
phosphorylation enrichment (Fes): 0.9
phosphorylation enrichment (EPHB2): 0.52
phosphorylation enrichment (Hck): 0.538
phosphorylation enrichment (EPHB1): 0.668
phosphorylation enrichment (c-Abl (mouse)): 0.732
phosphorylation enrichment (FGFR1): 0.627
phosphorylation enrichment (MERTK): 0.542

SH2 binding enrichment (Grb2 SH2): 1.16
SH2 binding enrichment (c-Src SH2): 0.766
SH2 binding enrichment (SHP2-C SH2): 0.625
Sequence: PFWKLYESVKK [MKI67_Y241]
phosphorylation enrichment (FGFR3): 0.703
phosphorylation enrichment (Fer (mouse)): 1.8
phosphorylation enrichment (c-Src): 1.58
phosphorylation enrichment (Jak2): 1.58
phosphorylation enrichment (Fyn): 1.03
phosphorylation enrichment (AncSZ): 1
phosphorylation enrichment (Fes): 1.39
phosphorylation enrichment (EPHB2): 2.31
phosphorylation enrichment (Hck): 4.34
phosphorylation enrichment (EPHB1): 6.75
phosphorylation enrichment (c-Abl (mouse)): 1.07
phosphorylation enrichment (FGFR1): 0.52
phosphorylation enrichment (MERTK): 0.966

SH2 binding enrichment (Grb2 SH2): 0.728
SH2 binding enrichment (c-Src SH2): 0.422
SH2 binding enrichment (SHP2-C SH2): 0.71
Sequence: PGAPAYRVLME [MYO5A_Y1245]
phosphorylation enrichment (FGFR3): 0.726
phosphorylation enrichment (Fer (mouse)): 0.671
phosphorylation enrichment (c-Src): 0.423
phosphorylation enrichment (Jak2): 1.06
phosphorylation enrichment (Fyn): 0.542
phosphorylation enrichment (AncSZ): 0.592
phosphorylation enrichment (Fes): 1.29
phosphorylation enrichment (EPHB2): 0.585
phosphorylation enrichment (Hck): 0.564
phosphorylation enrichment (EPHB1): 0.397
phosphorylation enrichment (c-Abl (mouse)): 1.52
phosphorylation enrichment (FGFR1): 0.379
phosphorylation enrichment (MERTK): 0.566

SH2 binding enrichment (Grb2 SH2): 0.984
SH2 binding enrichment (c-Src SH2): 0.922
SH2 binding enrichment (SHP2-C SH2): 0.615
Sequence: PGQAAYQKVVA [HBB_Y131_V127G]
phosphorylation enrichment (FGFR3): 0.558
phosphorylation enrichment (Fer (mouse)): 0.49
phosphorylation enrichment (c-Src): 0.579
phosphorylation enrichment (Jak2): 0.626
phosphorylation enrichment (Fyn): 0.478
phosphorylation enrichment (AncSZ): 0.68
phosphorylation enrichment (Fes): 0.831
phosphorylation enrichment (EPHB2): 0.525
phosphorylation enrichment (Hck): 0.361
phosphorylation enrichment (EPHB1): 0.517
phosphorylation enrichment (c-Abl (mouse)): 0.491
phosphorylation enrichment (FGFR1): 0.373
phosphorylation enrichment (MERTK): 0.514
